Experimental data as given in patent publication US20190002549A1 (I MAB BIOPHARMA, published 2019).

What was measured:
[1] = molecular target: T1, recombinant human GM-CSF protein (human, UniProt P04141 18-144); assay: SPR Biacore T200, antibody captured by anti-mouse Fc, GM-CSF as analyte, 25 C, 1:1 model
T1 construct: Bought recombinant protein (Genscript); also called biotinylated human GM-CSF protein
Protocol: FIG. 4 plots the binding kinetics of 23F4 and 50C5 with recombinant human GM-CSF. […] The binding kinetics assay of antibody to antigen was performed using Biacore T200 system through a mouse antibody capture approach. The anti-mouse Fc IgG were immobilized on CMS sensor chip according to the manufacturer's instruction. The test antibody was injected and captured by the immobilized anti-mouse Fc IgG. And then serial concentrations of the antigen were individually injected, and the binding profile was recorded for each concentration of antigen analyte, respectively. The assay system was regenerated by injection of 10 mM Glycine-HCL pH 1.5 for 30 seconds. The running buffer was HBS-EP+ (10 mM HEPES, pH 7.4, 150 mM NaCl, 3 mM EDTA and 0.05% P20). The assay temperature was 25° C., and the association and dissociation time were 180 and 600 seconds, respectively.

[2] = molecular target: T1, recombinant human GM-CSF protein; assay: ELISA, human GM-CSF coated at 1 µg/ml
Protocol: (§1) Recombinant human or rhesus GM-CSF protein (Genscript) was coated at 1 μg/ml in PBS onto microtiter plates for 2 h at room temperature (RT). After coating of antigen the wells were blocked with PBS/0.05% Tween (PBST) with 1% BSA for 1 h at RT. After washing of the wells with PBST, different concentrations of anti-GM-CSF antibodies were added to the well and incubated for 1 at RT. For detection of the binding antibodies, the HRP-conjugated secondary antibodies against mouse Fc (Jackson Immuno Research) were added, followed by the addition of fluorogenic substrates (Roche). Between all incubation steps, the wells of the plate were washed with PBST three times. Fluorescence was measured in a TECAN Spectrafluor plate reader.

[3] = molecular target: T2, recombinant rhesus GM-CSF protein (rhesus, UniProt Q9GL44 18-144); assay: ELISA, rhesus GM-CSF coated at 1 µg/ml
T2 construct: Bought recombinant protein (Genscript)
T2 sequence (Q9GL44 entry or part of it limits assumed): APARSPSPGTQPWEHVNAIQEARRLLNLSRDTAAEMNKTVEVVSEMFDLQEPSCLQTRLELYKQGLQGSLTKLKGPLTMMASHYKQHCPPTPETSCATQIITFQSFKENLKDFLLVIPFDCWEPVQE
Protocol: as §1

[4] = molecular target: T1, recombinant human GM-CSF protein; assay: cell-based or functional assay
[5] = molecular target: T1, recombinant human GM-CSF protein; assay: competition ELISA: antibody titrated with biotinylated human GM-CSF (0.05 ug/ml) on coated human GM-CSF receptor alpha (CD116); signal is GM-CSF bound to the receptor
Protocol: After coating of antigen the wells were blocked with PBS/0.05% Tween (PBST) with 1% BSA for 1 h at RT. After washing of the wells with PBST, different concentrations of anti-GM-CSF antibodies were added to the well in the presence of biotinylated human GM-CSF protein (0.05 μg/ml) and incubated for 1 hr at RT.
For detection of the binding of biotinylated GM-CSF to the coated receptor, the HRP-conjugated Streptavidin was added, followed by the addition of fluorogenic substrates (Roche). Between all incubation steps, the wells of the plate were washed with PBST three times. Fluorescence was measured in a TECAN Spectrafluor plate reader.

T1 sequence (P04141 18-144 limits assumed): as the sequence (Q9GL44 entry or part of it limits assumed) above, with G9S, K38E, V43I, S53T, Q67R, Q104E counted along it

Binder | Kd [1] | koff [1] | kon [1] | EC50 [2] | EC50 [3] | IC50 in the inhibition of TF-1 proliferation [4] | IC50 (read off the curve) [5]
23F4 (antibody, V domains shown, Mouse monoclonal antibody from a hybridoma; also called 23F4 antibody; murine antibody 23F4) VH: QVQLQQSGPELVKPGTSMKISCKTSDYTLTSHYLHWVKQRPGQGLEWIGWIFPGDDKTKYNEKFKGKATLTSDKTSNTAYMQLSSLTSEESAVYFCARGTKYLNWNFDVWGTGTTVTVSS VL: DIVLTQPQKFLSTSVGDRVSVTCKANQNVGTTLAWYQQKPGQSPKALIYSASYRYSGVPDRFTGSGSGTDFTLTISNVQSEDLAEYFCHQYTTYPLTFGGGTKLEIK | 0.0417 nM | 3.64e-05 s⁻¹ | 872000 M⁻¹ s⁻¹ | 0.0118 µg/mL | 0.0102 µg/mL | ~0.0109 µg/mL | ~1 µg/mL
50C5 (antibody, V domains shown, Mouse monoclonal antibody from a hybridoma; also called 5005 (misprint of 50C5); murine antibody 50C5) VH: QVQLQQSAAELVRPGASVKMSCKASGYIFTPYSIHWIKQRPGQGLEWIGYINPSTGYIEYNQHFKDRTTLTADKSSSTAYMQLRSLTSEDSAVYYCARGGDYEGYFDYWGQGTTLTVSS VL: DIQMTQSPDSLSASVGETVTITCRLNENIYSFLAWYQQRQGKSPQLLVYNAETLAEDVPSRFSGSGSGTQFSLKISSLQTDDFGTYYCQQHYGTPYTFGGGTNLEIE | 0.0443 nM | 0.00012 s⁻¹ | 2.72e+06 M⁻¹ s⁻¹ | 0.0146 µg/mL | 0.0217 µg/mL | ~0.0109 µg/mL | –
